Laboratory results taken from publication PMC2700083, “A covalent peptide inhibitor of RGS4 identified in a focused one-bead, one compound library screen” (BMC Pharmacology, 2009).
Where two headings read alike, the source gives them in different places. Bridges are numbered along the chain shown (N, C = ends).

Key:
Assay in all cases: FCPIA (flow cytometry protein interaction assay, Luminex beads); dose curves of 5nd on RGS4 cysteine mutants (5 nM, or 20 nM for the mutants with no Cys in the domain or the C-terminus) and labeled Gαo; curves constrained to 100% and 0%
[1] = molecular target: MBP-RGS4Δ51N A71C in the -7C (UniProt P49799)
[2] = molecular target: MBP-RGS4Δ51N A148C in the -7C (UniProt P49799)
[3] = molecular target: MBP-RGS4Δ51N -7C mutant (all 7 cysteines removed) (UniProt P49799)
[4] = molecular target: MBP-RGS4Δ51N with no Cys in the RGS domain (UniProt P49799)
[5] = molecular target: MBP-RGS4Δ51N A132C in the -7C (UniProt P49799)
[6] = molecular target: MBP-RGS4Δ51N with no Cys in the C-terminus (UniProt P49799)
[7] = molecular target: MBP-RGS4Δ51N A95C in the -7C (UniProt P49799)
[8] = molecular target: MBP-RGS4Δ51N with no Cys in the C-terminus (UniProt P49799); remark: listed apart in the source

B1: Peptide 5nd (Tyr-Trp-c[Cys-Lys-Gly-Leu-Cys]-Lys-NH2, S-S) (peptide)
peptide: H-YWCKGLCK-NH2
modifications: disulfide 3-7
SMILES: CC(C)C[C@@H]1NC(=O)CNC(=O)[C@H](CCCCN)NC(=O)[C@@H](NC(=O)[C@H](Cc2c[nH]c3ccccc23)NC(=O)[C@@H](N)Cc2ccc(O)cc2)CSSC[C@@H](C(=O)N[C@@H](CCCCN)C(N)=O)NC1=O
Which logIC50 [1] does the source give for B1 here?
Its logIC50 is -3.2 log M.

And the logIC50 [2]?
Its logIC50 is -3.51 log M.

What about the logIC50 [3] of the same binder?
Its logIC50 is -3.24 log M.

What about the logIC50 [4] of the same binder?
The logIC50 was -3.8 log M.

What about the logIC50 [5] of the same binder?
Its logIC50 is -3.41 log M.

What about the logIC50 [6] of the same binder?
Its logIC50 is -4.39 log M.

What about the logIC50 [7] of the same binder?
Its logIC50 is -3.58 log M.

What about the logIC50 [8] of the same binder?
Its logIC50 is -4.5 log M.
